Where no end group is shown, it is not given here. [ ]: non-standard residue; d: D form. pY = N[C@@H](Cc1ccc(OP(=O)(O)O)cc1)C(=O)O
Target: T1, TrkB-PLCγ1 binding (Mus musculus, UniProt Q62077)
T1 construct: The hippocampi were rapidly dissected on ice and homogenized in RIPA buffer; from tissue; host or cells: hippocampus of naïve C57BL/6 mice
T1 sequence (Q62077 1-1302): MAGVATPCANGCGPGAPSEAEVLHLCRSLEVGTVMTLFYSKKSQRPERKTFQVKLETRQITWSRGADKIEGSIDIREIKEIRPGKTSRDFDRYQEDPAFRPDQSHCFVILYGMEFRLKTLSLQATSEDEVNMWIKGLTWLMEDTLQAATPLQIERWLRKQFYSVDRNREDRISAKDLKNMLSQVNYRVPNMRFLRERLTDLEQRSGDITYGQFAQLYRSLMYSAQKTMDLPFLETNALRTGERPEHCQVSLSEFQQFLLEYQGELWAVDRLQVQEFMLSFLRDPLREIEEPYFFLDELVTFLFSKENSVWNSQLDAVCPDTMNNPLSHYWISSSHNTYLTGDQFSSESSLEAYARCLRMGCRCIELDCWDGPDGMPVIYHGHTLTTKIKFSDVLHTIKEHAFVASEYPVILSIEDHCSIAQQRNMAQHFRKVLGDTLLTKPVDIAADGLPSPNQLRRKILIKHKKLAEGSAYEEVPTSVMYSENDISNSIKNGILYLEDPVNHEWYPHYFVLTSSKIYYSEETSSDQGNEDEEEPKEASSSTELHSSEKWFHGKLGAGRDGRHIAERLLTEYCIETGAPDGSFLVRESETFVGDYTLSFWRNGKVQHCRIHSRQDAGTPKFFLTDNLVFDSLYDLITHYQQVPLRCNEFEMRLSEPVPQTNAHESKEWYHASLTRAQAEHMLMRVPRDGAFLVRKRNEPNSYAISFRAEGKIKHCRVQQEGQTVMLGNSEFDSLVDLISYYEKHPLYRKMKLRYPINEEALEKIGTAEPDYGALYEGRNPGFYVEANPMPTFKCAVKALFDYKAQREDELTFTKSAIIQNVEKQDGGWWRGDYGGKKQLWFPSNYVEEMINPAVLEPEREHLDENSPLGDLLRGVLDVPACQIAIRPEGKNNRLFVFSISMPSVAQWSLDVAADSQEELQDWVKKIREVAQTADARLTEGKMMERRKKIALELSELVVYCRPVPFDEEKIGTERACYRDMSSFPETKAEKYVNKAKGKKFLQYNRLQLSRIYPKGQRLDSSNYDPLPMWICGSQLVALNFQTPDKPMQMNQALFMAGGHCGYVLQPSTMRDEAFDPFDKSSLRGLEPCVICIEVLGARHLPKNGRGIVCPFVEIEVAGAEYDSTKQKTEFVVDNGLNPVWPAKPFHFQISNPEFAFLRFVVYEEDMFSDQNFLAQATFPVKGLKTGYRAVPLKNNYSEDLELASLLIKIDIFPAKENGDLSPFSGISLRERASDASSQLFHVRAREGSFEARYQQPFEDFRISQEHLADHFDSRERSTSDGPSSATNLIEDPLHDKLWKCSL
Test: Co-immunoprecipitation of TrkB and PLCγ1 from hippocampal homogenates after i.v. peptide
Type: in vivo
Conditions: 10 mg/kg i.v., 3 hr, hippocampus, compared to Scr
Protocol: Animals were anesthetized with pentobarbital (200 mg/kg i.p.) and decapitated, and the head was quickly immersed in liquid nitrogen for 4 s to rapidly cool the brain. The hippocampi were rapidly dissected on ice and homogenized in RIPA buffer, incubated on ice for 15 min, and centrifuged at 200,000×g for 10 min at 4° C. The supernatant was collected and stored at −80° C. until further analysis. TrkB was immunoprecipitated using TrkB antibody (1:1000, Millipore) and the lysates were incubated with 100 μL of protein A-Sepharose beads (Roche) overnight in 4° C. The beads/immune complexes were pelleted in a microcentrifuge and then resuspended in RIPA buffer and this procedure was repeated two additional times before adding 2×SDS PAGE sample buffer and boiled. After SDS PAGE, the gels were probed with TrkB and PLCγ1 antibody (1:1000, Cell signaling). Western blotting was conducted as previously described (He et al., 2010). Cell lysate and hippocampal homogenate were probed with p-PLCγ1 (pY783), PLCγ1, p-Akt (pS473), Akt, p-ERK (p44/p42) and ERK (1:1000, Cell signaling). The immunoreactivity of individual bands on western blots was measured by ImageJ software (National Institutes of Health) and normalized to PLCγ1, Akt or ERK contents. Equivalent protein loading among samples was monitored by β-actin (1:10000; Sigma) levels. […]

With “YGRKKRRQRRR-LQNLAKASPVpYLDI (YGRKKRRQRRRLQNLAKASPV[pY]LDI) [pY816]” the “co-immunoprecipitation of TrkB and PLCγ1” value was “inhibited the co-immunoprecipitation of TrkB and PLCγ1”.

From US11129870B2, “Compositions and methods for uncoupling TrkB receptor from PLC gamma 1 for the treatment of epilepsy and anxiety-like disorder” (DUKE UNIVERSITY, priority 2010, dated 2021)
